Experimental data taken from paper PMC6365055, “High resolution cryo-EM structure of the helical RNA-bound Hantaan virus nucleocapsid reveals its assembly mechanisms” (eLife, 2019).

B1: Hantaan virus nucleoprotein, recombinant full-length (natural protein)
chain: MATMEELQREINAHEGQLVIARQKVRDAEKQYEKDPDELNKRTLTDREGVAVSIQAKIDELKRQLADRIATGKNLGKEQDPTGVEPGDHLKERSMLSYGNVLDLNHLDIDEPTGQTADWLSIIVYLTSFVVPILLKALYMLTTRGRQTTKDNKGTRIRFKDDSSFEDVNGIRKPKHLYVSLPNAQSSMKAEEITPGRYRTAVCGLYPAQIKARQMISPVMSVIGFLALAKDWSDRIEQWLIEPCKLLPDTAAVSLLGGPATNRDYLRQRQVALGNMETKESKAIRQHAEAAGCSMIEDIESPSSIWVFAGAPDRCPPTCLFIAGIAELGAFFSILQDMRNTIMASKTVGTSEEKLRKKSSFYQSYLRRTQSMGIQLGQRIIVLFMVAWGKEAVDNFHLGDDMDPELRTLAQSLIDVKVKEISNQEPLKL
notes: also called HTNV-NP; NP
B2: NP_(74-429) construct obtained by trypsin limited proteolysis of HTNV-NC (domain or fragment)
chain: NLGKEQDPTGVEPGDHLKERSMLSYGNVLDLNHLDIDEPTGQTADWLSIIVYLTSFVVPILLKALYMLTTRGRQTTKDNKGTRIRFKDDSSFEDVNGIRKPKHLYVSLPNAQSSMKAEEITPGRYRTAVCGLYPAQIKARQMISPVMSVIGFLALAKDWSDRIEQWLIEPCKLLPDTAAVSLLGGPATNRDYLRQRQVALGNMETKESKAIRQHAEAAGCSMIEDIESPSSIWVFAGAPDRCPPTCLFIAGIAELGAFFSILQDMRNTIMASKTVGTSEEKLRKKSSFYQSYLRRTQSMGIQLGQRIIVLFMVAWGKEAVDNFHLGDDMDPELRTLAQSLIDVKVKEISNQEPLKL
notes: also called truncated construct NP_(74-429)

How the values were obtained:
cryo-EM structure = molecular target: the molecule itself; experiment: cryo-EM structure
negative stain EM = molecular target: the molecule itself; experiment: negative stain EM

| Protein | binding result (cryo-EM structure) | binding result (negative stain EM) |
| --- | --- | --- |
| B1 | binds |  |
| B2 |  | binds |
